Measurements reported in patent US20220143214A1.
Where two headings read alike, the source gives them in different places.

Tests used:
[1] = molecular target: LY6A (Ly6a, C57BL/6J mouse) (mouse (C57BL/6J)) (UniProt P05533); test: AAV library bound to Ly6a-transfected HEK293T cells, NGS
[2] = molecular target: LY6C1 (Ly6c1, C57BL/6J mouse, splice variant 1) (mouse (C57BL/6J)) (UniProt P0CW02); test: AAV library bound to Ly6c1-transfected HEK293T cells, NGS
[3] = molecular target: LY6A (Ly6a, C57BL/6J mouse) (mouse (C57BL/6J)) (UniProt P05533); test: qPCR of viral genomes bound to Ly6a-transfected HEK293T cells
[4] = molecular target: LY6A (Ly6a, C57BL/6J mouse) (mouse (C57BL/6J)) (UniProt P05533); test: AAV library bound to Ly6a-transfected HEK293T cells, NGS; remark: listed apart in the source
[5] = molecular target: LY6C1 (Ly6c1, C57BL/6J mouse, splice variant 1) (mouse (C57BL/6J)) (UniProt P0CW02); test: AAV library bound to Ly6c1-transfected HEK293T cells, NGS; remark: listed apart in the source
[6] = molecular target: LY6A (Ly6a, C57BL/6J mouse) (mouse (C57BL/6J)) (UniProt P05533); test: binding (qPCR) and transduction of cells with ectopic LY6A
[7] = molecular target: LY6A (Ly6a, C57BL/6J mouse) (mouse (C57BL/6J)) (UniProt P05533); test: cell-based or functional assay
[8] = molecular target: LY6A (Ly6a, C57BL/6J mouse) (mouse (C57BL/6J)) (UniProt P05533); test: qPCR of viral genomes bound to BMVECs treated with Ly6a sgRNAs (CRISPR/SaCAS9)
[9] = molecular target: LY6C1 (Ly6c1, C57BL/6J mouse, splice variant 1) (mouse (C57BL/6J)) (UniProt P0CW02); test: cell-based or functional assay

UniProt P05533, sequence (P05533 27-112 limits assumed): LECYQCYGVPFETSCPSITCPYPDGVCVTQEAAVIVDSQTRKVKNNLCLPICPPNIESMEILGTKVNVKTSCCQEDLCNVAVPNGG
UniProt P0CW02, sequence (P0CW02 27-109 limits assumed, change not shown): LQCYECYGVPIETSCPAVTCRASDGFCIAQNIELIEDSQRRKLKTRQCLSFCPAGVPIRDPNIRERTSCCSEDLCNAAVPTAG

Substance | fold enrichment (log2) [4] [log2] | fold enrichment (log2) [5] [log2] | other results
AAV9 K449R 7-mer variant C3 (WGTPPRG) | – | – | fold enrichment (log2) [1]: 1.01 log2; fold enrichment (log2) [2]: 6.35 log2
AAV-PHP.B | – | – | fold increase in binding on Ly6a expression [3]: > 50 fold
AAV9 K449R 7-mer variant TRNGYST | 0.82 | 5.58 | fold enrichment (log2) [1]: 0.186 log2; fold enrichment (log2) [2]: 4.05 log2
AAV9 K449R 7-mer variant C5 (ELYKLPT) | – | – | fold enrichment (log2) [1]: -2.26 log2; fold enrichment (log2) [2]: 5.38 log2
AAV-PHP.eB | – | – | fold increase in binding and transduction on LY6A expression [6]: > 30 fold; fold increase in binding on Ly6a expression [3]: > 50 fold; transduction of HEK293T cells (Luciferase assay) [7]: 30 fold; transduction of hCMEC cells (firefly luciferase assay) (logs (base 10)) [7]: 2; reduction in binding after Ly6a disruption [8]: 50%
AAV9 K449R 7-mer variant C1 (KSAGSIY) | – | – | fold enrichment (log2) [1]: 1.41 log2; fold enrichment (log2) [2]: 6.12 log2
AAV9 K449R 7-mer variant C28 (KSVGSVY) | – | – | fold enrichment (log2) [1]: -1.24 log2; transduction of hCMEC cells (firefly luciferase assay) (logs (base 10)) [9]: 2; fold enrichment (log2) [2]: 3.59 log2
AAV9 K449R 7-mer variant TYGGYSQ | -0.34 | 2.02 | –
AAV9 K449R 7-mer variant LSMGYST | -3.91 | 2.97 | –
AAV-PHP.B2 | – | – | fold increase in binding on Ly6a expression [3]: > 50 fold
AAV9 K449R 7-mer variant VKGGYSS | 0.07 | 3.3 | –
AAV9 K449R 7-mer variant MVRNYST | -0.94 | 3.25 | –
AAV9 K449R 7-mer variant SYIGASS | -1.01 | 5.08 | –
AAV9 K449R 7-mer variant YENRPFV | 2.23 | -3.32 | –
AAV9 K449R 7-mer variant GKTGYST | -3.32 | 2.93 | –
AAV9 K449R 7-mer variant TSFKPFP | 3.11 | 0.48 | –
AAV9 K449R 7-mer variant GKTHGYS | 1.65 | 3.87 | –
AAV9 K449R 7-mer variant QNARPFV | 1.52 | 1.42 | –
AAV9 K449R 7-mer variant NIIRPFA | 3.23 | 0.4 | –
AAV9 K449R 7-mer variant MRTFGSA | 1 | 3.97 | –
AAV9 K449R 7-mer variant SKSGYSA | -3.32 | 2.14 | –
AAV9 K449R 7-mer variant TKYMHSS | 1.35 | 4.24 | –
AAV9 K449R 7-mer variant VYPGYST | -3.32 | 2.21 | –
AAV9 K449R 7-mer variant SNDRPFI | 5.43 | -1.02 | –
AAV9 K449R 7-mer variant GSYGYSS | -3.32 | 2.48 | –
AAV9 K449R 7-mer variant TRTGYST | 0.89 | 4.63 | –
AAV9 K449R 7-mer variant TKSGYST | 0.68 | 5.71 | –
AAV9 K449R 7-mer variant TGTSPFK | 2.22 | -3.32 | –
AAV9 K449R 7-mer variant SEGRPFI | 1.85 | -3.55 | –
